Experimental data taken from patent US5565425A, “Viral infection and proliferation inhibitors” (Snow Brand Milk Products Co., Ltd, priority 1993, dated 1996).

How the values were obtained:
HIV (HTLV-IIIB) = assay: Inhibitory activity against HIV infection and proliferation in MT-4 cells (indirect fluorescence antibody method); assay type: cell-based, human immunodeficiency virus (HIV); details: three days, positive control 26.0%
Procedure: (Method) Cultured supernatant of MOLT-4/HTLV-IIIB cells, a HTLV-IIIB persistent infected strain of HIV, was used as a viral solution. The supernatant was kept at -80° C. Human T cell line MT-4 was used for the test. MT-4 was subcultured in RPMI 1640 medium containing 10% fetal calf serum (FCS). Sample, LF derived peptide, was dissolved in RPMI 1640 medium and one ml of the diluted solution at various concentrations was added to the cells. The inoculated MT-4 test sample was incubated for 60 minutes and infected with HIV at a concentration of moi […]=0.01 and one ml of the cell solution adjusted at a cell density of 3×10^5 cells/ml was added. The cells were cultured for three days : and HIV infected cells were determined with an indirect fluorescence antibody method.
HIV infected cells were determined by the indirect fluorescence antibody method using HIV infected patient serum as a primary antibody. […] HIV infected MT-4 cells cultured without addition of the sample was used as a positive control and cells without addition of viral solution was cultured to make a negative control group.

[1] = tested on: influenza virus A/PR/8/34; details: 100 μl of one mg/ml solution in allantoic cavity three hours before virus; average of five eggs
[2] = tested on: Human CMV (Tanaka strain); assay: Inhibitory activity against human CMV infection and proliferation in HELF cells (fluorescence staining); assay type: cell-based, Human cytomegalo virus; details: 24 hrs., concentration not given
Procedure: (Method) LF derived peptide was dissolved in 2% serum added MEM medium to give five mg/ml solution, filtered and sterilized to make a stock solution. The stock solution was diluted with 2% serum added MEM medium on use. Samples containing human embryo lung fibroblast cells (HELF cells) were suspended in 2% serum added MEM medium and incubated for 10 minutes. The cells were collected by centrifugation, washed twice with 2% serum added MEM medium and suspended in 2% serum added MEM medium. Human cytomegalo virus [Human CMV (Tanaka strain)] was added, incubated for 24 hrs., fluorescence stained with human CMV positive serum and the adsorption rate of human CMV to the cells was determined.
The results are judged from the numbers of fluorescent stained cells per one cover slip.

B1: Human LF: human lactoferrin, an iron-binding protein secreted in milk (protein, UniProt P02788 20-710, looked up)
Lactotransferrin: GRRRSVQWCAVSQPEATKCFQWQRNMRKVRGPPVSCIKRDSPIQCIQAIAENRADAVTLDGGFIYEAGLAPYKLRPVAAEVYGTERQPRTHYYAVAVVKKGGSFQLNELQGLKSCHTGLRRTAGWNVPIGTLRPFLNWTGPPEPIEAAVARFFSASCVPGADKGQFPNLCRLCAGTGENKCAFSSQEPYFSYSGAFKCLRDGAGDVAFIRESTVFEDLSDEAERDEYELLCPDNTRKPVDKFKDCHLARVPSHAVVARSVNGKEDAIWNLLRQAQEKFGKDKSPKFQLFGSPSGQKDLLFKDSAIGFSRVPPRIDSGLYLGSGYFTAIQNLRKSEEEVAARRARVVWCAVGEQELRKCNQWSGLSEGSVTCSSASTTEDCIALVLKGEADAMSLDGGYVYTAGKCGLVPVLAENYKSQQSSDPDPNCVDRPVEGYLAVAVVRRSDTSLTWNSVKGKKSCHTAVDRTAGWNIPMGLLFNQTGSCKFDEYFSQSCAPGSDPRSNLCALCIGDEQGENKCVPNSNERYYGYTGAFRCLAENAGDVAFVKDVTVLQNTDGNNNEAWAKDLKLADFALLCLDGKRKPVTEARSCHLAMAPNHAVVSRMDKVERLKQVLLHQQAKFGRNGSDCPDKFCLFQSETKNLLFNDNTECLARLHGKTTYEKYLGPQYVAGITNLKKCSTSPLLEACEFLRK
ratio of stained (HIV infected) cells (HIV (HTLV-IIIB); sample 63 μg/ml): 17%
ratio of stained (HIV infected) cells (HIV (HTLV-IIIB); sample 125 μg/ml): 8.6%
ratio of stained (HIV infected) cells (HIV (HTLV-IIIB); sample 250 μg/ml): 7.3%
ratio of stained (HIV infected) cells (HIV (HTLV-IIIB); sample 500 μg/ml): 5.8%
ratio of stained (HIV infected) cells (HIV (HTLV-IIIB); sample 1,000 μg/ml): 3.1%
Inhibitory rate of infection and proliferation of influenza virus [1]: 87.5%
Inhibitory rate of human CMV infection [2]: 94.8%
